Results: patent US20220251241A1 (NGM BIOPHARMACEUTICALS, published 2022)

Assays:
[1] = target: T1, HTRA1 (construct not given) (Homo sapiens (Human), UniProt Q92743 23-480, limits assumed); test: SPR (Biacore), 25° C.
Protocol: The binding affinities of anti-HTRA1 antibodies to human HTRA1 were measured using a Biacore system (GE Healthcare Life Sciences). Briefly, anti-Fc antibody (Sigma-Aldrich) was immobilized on all four flow cells of a CMS chip using amine coupling reagents (GE Healthcare LifeSciences). Antibodies were captured on flow cells 2, 3, and 4 using flow cell 1 as a reference. […] Kinetic data were collected over time and fit using the simultaneous global fit equation to yield affinity constants (KD values) for each antibody.
(§1) SPR assays were set up using a Biacore system as described herein.

[2] = target: T2, human HTRA1 full length protein (HTRA1-FL) (human, UniProt Q92743 23-480); test: SPR (Biacore), 37° C.
T2 construct: also called human HTRA1-FL
T2 sequence (Q92743 23-480): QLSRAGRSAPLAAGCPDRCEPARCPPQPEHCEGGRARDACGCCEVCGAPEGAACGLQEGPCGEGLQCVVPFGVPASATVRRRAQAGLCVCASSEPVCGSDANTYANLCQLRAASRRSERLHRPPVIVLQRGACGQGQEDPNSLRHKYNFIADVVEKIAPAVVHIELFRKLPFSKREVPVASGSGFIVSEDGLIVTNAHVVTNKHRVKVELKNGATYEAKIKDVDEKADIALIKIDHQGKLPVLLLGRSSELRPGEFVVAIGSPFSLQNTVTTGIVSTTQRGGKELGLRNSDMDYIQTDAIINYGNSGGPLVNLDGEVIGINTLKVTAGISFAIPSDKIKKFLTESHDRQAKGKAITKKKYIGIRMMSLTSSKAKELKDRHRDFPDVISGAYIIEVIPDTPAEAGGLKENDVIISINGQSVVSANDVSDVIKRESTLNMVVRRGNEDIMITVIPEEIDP
Protocol: (§2) The binding affinities of anti-HTRA1 antibodies to human HTRA1 were measured using a Biacore system (GE Healthcare Life Sciences). Briefly, anti-Fc antibody (Sigma-Aldrich) was immobilized on all four flow cells of a CMS chip using amine coupling reagents (GE Healthcare LifeSciences). Antibodies were captured on flow cells 2, 3, and 4 using flow cell 1 as a reference. Concentrations ranging from 3.3-10 nM of human delta N-HTRA1 were injected at a flow rate of 50 μL/min at 37° C. Kinetic data were collected over time and fit using the simultaneous global fit equation to yield affinity constants (KD values) for each antibody.
The binding affinity of hz24F7.v2 to a HTRA1 full length protein (HTRA1-FL) or a HTRA1-CAT was determined using a Biacore system as described herein and compared with the binding affinity of the parental 24F7 antibody (see Table 9).

[3] = target: T1, HTRA1 (construct not stated in the …); test: protease inhibition assay, casein substrate (EnzChek); apparent Ki (Ki^app)
From the text: (§3) Two enzymatic assays were used to characterize HTRA1 protease activity and evaluate inhibitory activity of anti-HTRA1 antibodies. EnzChek® Protease Assay Kit (ThermoFisher Scientific) was used following the manufacturer's instructions. This kit contains casein protein that is heavily labeled with the pH-insensitive green-fluorescent BOPIPY® FL dye that results in almost total quenching of the conjugate's fluorescence. Protease-catalyzed hydrolysis of labeled casein releases highly fluorescent BODIPY® FL dye-labeled peptides. The concomitant increase in fluorescence is proportional to protease activity.
Antibodies identified in HTRA1 binding assays were tested for their ability to inhibit HTRA1 protease activity. The range of antibody concentrations was tested to establish a dose response curve and determine IC₅₀ values.

HTRA1-CAT F194A mutant = HTRA1-CAT F194A mutant (human, UniProt Q92743 156-364); test: ELISA
Chain of HTRA1-CAT F194A mutant (Q92743 156-364 F194A): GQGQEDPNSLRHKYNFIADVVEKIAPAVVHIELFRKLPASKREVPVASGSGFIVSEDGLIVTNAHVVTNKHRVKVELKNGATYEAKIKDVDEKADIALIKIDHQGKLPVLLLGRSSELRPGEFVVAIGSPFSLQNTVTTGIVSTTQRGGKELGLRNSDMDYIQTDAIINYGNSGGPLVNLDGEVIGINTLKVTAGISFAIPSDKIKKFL
Protocol: (§4) A series of mutated HTRA1-catalytic domain (HTRA1-CAT; amino acids 156-364 of SEQ ID NO:1) proteins containing single amino acid substitutions were generated by standard methods (e.g., site directed mutagenesis). Antibody 24F7 was tested by ELISA for binding to these mutant HTRA1-CAT proteins as well as a wild-type HTRA1 peptide consisting of amino acids […] (SEQ ID NO:92; R190—V201 of SEQ ID NO:1).

[4] = target: T3, wild-type HTRA1 peptide RKLPFSKREVPV (R190-V201 of SEQ ID NO:1) (human); test: ELISA
T3 construct: also called Wild type peptide (R190 - V201)
T3 peptide: RKLPFSKREVPV
Protocol: as §4

HTRA1-CAT R197A mutant = HTRA1-CAT R197A mutant (human, UniProt Q92743 156-364); test: ELISA
Chain of HTRA1-CAT R197A mutant (Q92743 156-364 R197A): as the sequence (Q92743 156-364 F194A) above, with A39F, R42A counted along it
Protocol: as §4

HTRA1-CAT P193A mutant = HTRA1-CAT P193A mutant (human, UniProt Q92743 156-364); test: ELISA
Chain of HTRA1-CAT P193A mutant (Q92743 156-364 P193A): as the sequence (Q92743 156-364 F194A) above, with P38A, A39F counted along it
Protocol: as §4

HTRA1-CAT R190A mutant = HTRA1-CAT R190A mutant (human, UniProt Q92743 156-364); test: ELISA
Chain of HTRA1-CAT R190A mutant (Q92743 156-364 R190A): as the sequence (Q92743 156-364 F194A) above, with R35A, A39F counted along it
Protocol: as §4

[5] = target: endogenously expressed HTRA1 secreted by the human melanoma cell line C32 (human, UniProt Q92743 23-480); test: cell-based or functional assay
Chain of endogenously expressed HTRA1 secreted by the human melanoma cell line C32 (Q92743 23-480): as the sequence (Q92743 23-480) above

[6] = target: T1, HTRA1 (construct not stated in the …); test: cell-based or functional assay
[7] = target: T1, HTRA1 (construct not stated in the …); test: protease inhibition assay, casein substrate; apparent Ki (Ki^app)
From the text: as §3
To confirm that the humanized version of antibody 24F7 retained the ability to inhibit H IRA1 protease activity, hz24F7.v2 was assessed in casein and H2-Opt assays as described herein.

[8] = target: T1, HTRA1 (construct not stated in the …); test: protease inhibition assay, H2-Opt peptide substrate (FRET); apparent Ki (Ki^app)
[9] = target: T1, HTRA1 (construct not stated in the …); test: cell-based or functional assay; remark: listed apart in the source
[10] = target: human delta N-HTRA1 (amino acids 156-480 of SEQ ID NO:1) (human, UniProt Q92743 156-480); test: SPR (Biacore); antibody captured by anti-Fc, human delta N-HTRA1 injected; temperature of this table not stated
Chain of human delta N-HTRA1 (amino acids 156-480 of SEQ ID NO:1) (Q92743 156-480, stated change not applied): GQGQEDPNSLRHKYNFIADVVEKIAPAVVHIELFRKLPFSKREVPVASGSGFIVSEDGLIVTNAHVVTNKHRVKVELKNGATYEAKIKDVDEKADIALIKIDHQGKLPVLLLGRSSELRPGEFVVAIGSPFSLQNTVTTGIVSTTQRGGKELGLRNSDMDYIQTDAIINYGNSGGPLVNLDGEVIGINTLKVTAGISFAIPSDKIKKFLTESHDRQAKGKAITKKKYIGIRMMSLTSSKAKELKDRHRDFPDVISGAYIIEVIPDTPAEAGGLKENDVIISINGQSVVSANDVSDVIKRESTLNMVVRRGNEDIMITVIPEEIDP
Protocol: as §2

[11] = target: T1, HTRA1 (construct not stated in the …); test: protease inhibition assay, H2-Opt peptide substrate; apparent Ki (Ki^app)
[12] = target: T1, HTRA1 (construct not stated in the …); test: cell-based or functional assay; remark: listed apart in the source
[13] = target: T1, HTRA1 (construct not stated in the …); test: cell-based or functional assay; remark: listed apart in the source
[14] = target: T1, HTRA1 (construct not stated in the …); test: SPR (Biacore), 37° C.
Protocol: as §2, §1

T1 sequence (Q92743 23-480 limits assumed): as the sequence (Q92743 23-480) above

B1: antibody 24F7 (antibody, V domains shown)
VH: QVQLQQSGAELVRPGASVKLSCKASGYTFTDYEMHWVKQTPVHGLEWIGAIDPETGGTAYNQKFKGKATLTADKSSSTAYMELRSLTSEDSAVYYCTREGYSYDGGGYYFDYWGQGTTLTVSS
VL: QIVLTQSPAIMSASPGEKVTMTCSVSSSVSYMYWYQQKPGSSPRLLIYDTSNLASGVPVRFSGSGSGTSYSLTISRMEAEDAATYYCQQWSSYPTFGGGTKLEIK
notes: Mouse hybridoma monoclonal antibody; also called parental 24F7 antibody
Question: Which results are given for B1?
Answer: Kd [1]: 30 pM; koff [1]: 5e-05 s⁻¹; kon [1]: 1.6e+06 M⁻¹ s⁻¹; Kd [2]: 47 pM; koff [2]: 8.6e-05 s⁻¹; kon [2]: 1.8e+06 M⁻¹ s⁻¹; Ki [3]: 54 pM; binding result (HTRA1-CAT F194A mutant): binds; binding result [4]: no binding; binding result (HTRA1-CAT R197A mutant): no binding; binding result (HTRA1-CAT P193A mutant): binds; binding result (HTRA1-CAT R190A mutant): no binding; IC50 of inhibition of protease activity, EnzChek protease assay with C32 conditioned media [5]: 118 pM; IC50 of inhibition of HTRA1 protease activity, H2-Opt peptide as substrate [6]: 164 pM; IC50 of inhibition of HTRA1 protease activity, casein as substrate [6]: 145 pM; Ki [7]: 99 pM; Ki [8]: 118 pM; IC50, Casein Assay [9]: 350 pM; IC50, H2-Opt Assay [9]: 170 pM; Kd [10]: 12 pM; koff [10]: 8.5e-05 s⁻¹; kon [10]: 7.4e+06 M⁻¹ s⁻¹; Ki [11]: 76 pM; IC50 (read off the curve), HTRA1 protease assay, casein substrate 0.05 ug/ml (inverted triangles) [12]: ~200 pM; IC50 (read off the curve), HTRA1 protease assay, casein substrate 0.1 ug/ml (triangles) [12]: ~200 pM; IC50 (read off the curve), HTRA1 protease assay, casein substrate 0.2 ug/ml (circles) [12]: ~200 pM; IC50 (read off the curve), HTRA1 protease assay, casein substrate 0.3 ug/ml (squares) [12]: ~200 pM; IC50, Protease Assay-Casein substrate [13]: 150 pM; IC50, Protease Assay-H2-Opt peptide [13]: 120 pM; Kd [14]: 21 pM; koff [14]: 8.2e-05 s⁻¹; kon [14]: 4e+06 M⁻¹ s⁻¹
